This passage reports Kd results from paper PMC10658506 (2023).

The target of this test is T1, soluble human IL-11 receptor extracellular domain, his-tagged (human, UniProt Q14626 24-370).
T1 chain: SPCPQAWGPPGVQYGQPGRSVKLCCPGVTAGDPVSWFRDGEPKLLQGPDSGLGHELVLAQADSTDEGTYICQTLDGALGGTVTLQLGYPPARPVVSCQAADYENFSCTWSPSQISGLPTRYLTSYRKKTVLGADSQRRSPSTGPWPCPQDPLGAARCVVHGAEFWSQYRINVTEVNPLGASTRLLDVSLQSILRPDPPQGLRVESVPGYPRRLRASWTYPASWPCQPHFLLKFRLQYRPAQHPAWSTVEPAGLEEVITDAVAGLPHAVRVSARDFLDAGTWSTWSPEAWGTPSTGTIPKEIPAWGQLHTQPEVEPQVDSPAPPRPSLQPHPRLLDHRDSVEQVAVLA
Description: FACS.

Residue numbers refer to the chain shown, from its start.

B1: yeast-displayed IL-11 IPR (ligand)
chain: PGPPPGPPRVSPDPRAELDSIVLLTRSLLADTRQLAAQLRDKFPADGDHNLDSLPTPAMSARALGALQLPGVLTRLRADLLSYLRHVQWLRRAGGSSLKTLEPELGTLQARLDRLLRRLQLLMSRLALPQPPPDPPAPPLAPPSSAWGGIRAAHAILGGLHLTLDWAVRGLLLLKTRL
For the molecule B1, the equilibrium dissociation constant (Kd) was found to be 0.22 nM.

B2: yeast-displayed IL-11 GIPRDM (ligand)
chain: B1 chain with D19G, G71D, V72M
As to B2, binding was put at a Kd of 0.29 nM.

B3: yeast-displayed wild-type human IL-11 (ligand)
chain: B1 chain with I21T, P57L, R62G
In the case of B3, the Kd was 8.2 nM.

B4: yeast-displayed IL-11 GIPRD (ligand)
chain: B1 chain with D19G, G71D
Regarding B4, the affinity, expressed as Kd, was 0.19 nM.

As a reminder, the Kd is the constant that tells how readily two partners part at equilibrium. Lower therefore signals a tighter complex.
